Laboratory results reported in patent US20140322216A1.

Biological target: human glypican-3 naturally expressed on the cell surface (HepG2 and other GPC3+ cell lines) (human) (UniProt P51654)
Test: flow cytometry on HepG2, 1G12 with anti-mouse dye, grey = isotype control; on Hs578T the histogram lies on the control's

Chain of human glypican-3 naturally expressed on the cell surface (HepG2 and other GPC3+ cell lines) (human) (P51654 25-554 limits assumed): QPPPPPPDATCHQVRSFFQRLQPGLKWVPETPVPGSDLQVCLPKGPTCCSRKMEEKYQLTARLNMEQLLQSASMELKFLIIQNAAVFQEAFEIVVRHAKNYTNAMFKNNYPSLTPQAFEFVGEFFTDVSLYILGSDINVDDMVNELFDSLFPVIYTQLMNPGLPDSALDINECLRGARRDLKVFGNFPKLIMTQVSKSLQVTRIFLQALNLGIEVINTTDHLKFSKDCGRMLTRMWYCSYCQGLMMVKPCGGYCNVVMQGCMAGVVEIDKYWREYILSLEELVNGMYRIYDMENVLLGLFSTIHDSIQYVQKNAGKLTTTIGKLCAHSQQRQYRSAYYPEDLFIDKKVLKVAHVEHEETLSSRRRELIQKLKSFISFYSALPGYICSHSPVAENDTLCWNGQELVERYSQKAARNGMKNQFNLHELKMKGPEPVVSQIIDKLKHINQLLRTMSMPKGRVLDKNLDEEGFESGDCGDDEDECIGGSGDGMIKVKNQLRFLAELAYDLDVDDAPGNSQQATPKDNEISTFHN

commercial monoclonal anti-human GPC3 antibody (clone 1G12)
% of cells in the positive gate: 46.1%
